According to US20120328512A1 (BRACCO IMAGING S P A, published 2012):
Bridge positions count the residues as written; N and C are the ends. Square brackets hold non-standard residues; d marks the D form. * marks the point of attachment. αGalNAc = CC(=O)N[C@@H]1[C@@H](O)[C@@H](O)[C@@H](CO)O[C@@H]1*; Phe(3,4-F2) = N[C@@H](Cc1ccc(F)c(F)c1)C(=O)O; Thf2ca = tetrahydrofuran-2-carboxylic acid; Phe(4-F) = N[C@@H](Cc1ccc(F)cc1)C(=O)O; Hyp = O=C(O)[C@@H]1C[C@@H](O)CN1; Cha = N[C@@H](CC1CCCCC1)C(=O)O; AEEA = NCCOCCOCC(=O)O

T1: DDE
T1 chain 1: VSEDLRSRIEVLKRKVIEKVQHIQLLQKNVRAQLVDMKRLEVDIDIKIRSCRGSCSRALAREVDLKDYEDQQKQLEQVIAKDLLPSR
T1 chain 2: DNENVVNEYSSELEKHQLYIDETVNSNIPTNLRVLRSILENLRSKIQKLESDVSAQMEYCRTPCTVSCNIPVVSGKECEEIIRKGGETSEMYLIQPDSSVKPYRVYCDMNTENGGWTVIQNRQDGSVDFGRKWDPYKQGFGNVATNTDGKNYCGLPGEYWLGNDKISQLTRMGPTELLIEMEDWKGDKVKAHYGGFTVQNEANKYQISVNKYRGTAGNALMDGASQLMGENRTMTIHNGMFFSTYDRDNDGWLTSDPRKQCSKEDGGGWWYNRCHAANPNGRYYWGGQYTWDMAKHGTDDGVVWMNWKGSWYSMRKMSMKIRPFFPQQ
T1 chain 3: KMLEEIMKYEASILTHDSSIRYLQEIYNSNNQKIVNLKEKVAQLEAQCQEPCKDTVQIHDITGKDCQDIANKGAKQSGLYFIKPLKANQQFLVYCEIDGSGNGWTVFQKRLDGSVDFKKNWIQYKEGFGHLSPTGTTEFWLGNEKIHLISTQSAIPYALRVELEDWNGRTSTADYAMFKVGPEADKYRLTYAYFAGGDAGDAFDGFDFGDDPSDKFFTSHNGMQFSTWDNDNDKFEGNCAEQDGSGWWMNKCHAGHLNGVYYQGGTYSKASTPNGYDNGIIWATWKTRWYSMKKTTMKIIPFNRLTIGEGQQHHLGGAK
T1 chain 4: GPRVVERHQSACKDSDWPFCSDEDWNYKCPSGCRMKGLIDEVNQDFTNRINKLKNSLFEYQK
T1 chain 5: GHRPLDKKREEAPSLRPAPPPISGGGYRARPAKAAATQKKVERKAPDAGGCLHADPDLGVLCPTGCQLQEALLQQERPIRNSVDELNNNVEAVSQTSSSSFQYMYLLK
T1 chain 6: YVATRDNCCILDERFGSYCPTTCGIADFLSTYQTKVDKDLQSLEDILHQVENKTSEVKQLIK


Tests used:
DDE [1] = target: T1, DDE; assay: competition fluorescence polarization: unlabeled peptide against Seq000-CF5 tracer on DDE; n = 2
DDE [2] = assay: as above; remark: listed apart in the source

Row | Binder | Rel IC50 (DDE [1]) | Rel IC50 (ratio to the reference peptide) (DDE [2])
1 | Ac-WQPCPWESWT[Phe(3,4-F2)]CWDPGGGK-NH2 (disulfide 4-12) [Seq020-P] |  | 0.428
2 | Ac-WQPCPWESWT[Cha]CWDPGGGK-NH2 (disulfide 4-12) [Seq018-P] |  | 0.494
3 | Ac-GWQPCPWESWTFCWDPGGGK-NH2 (disulfide 5-13) [Seq016-P] |  | 1.04
4 | Ac-GGRGWQPCPWESWTFCWDPGGGK-NH2 (disulfide 8-16) [Seq015-P] | 0.37 ratio to the reference peptide | 
5 | Ac-RRGGWQPC[Hyp]WESWTFCWDPGGGK-NH2 (disulfide 8-16; SMILES CC(=O)N[C@@H](CCCNC(=N)N)C(=O)N[C@@H](CCCNC(=N)N)C(=O)NCC(=O)NCC(=O)N[C@@H](Cc1c[nH]c2ccccc12)C(=O)N[C@@H](CCC(N)=O)C(=O)N1CCC[C@H]1C(=O)N[C@H]1CSSC[C@@H](C(=O)N[C@@H](Cc2c[nH]c3ccccc23)C(=O)N[C@@H](CC(=O)O)C(=O)N2CCC[C@H]2C(=O)NCC(=O)NCC(=O)NCC(=O)N[C@@H](CCCCN)C(N)=O)NC(=O)[C@H](Cc2ccccc2)NC(=O)[C@H]([C@@H](C)O)NC(=O)[C@H](Cc2c[nH]c3ccccc23)NC(=O)[C@H](CO)NC(=O)[C@H](CCC(=O)O)NC(=O)[C@H](Cc2c[nH]c3ccccc23)NC(=O)[C@@H]2C[C@@H](O)CN2C1=O) [Seq047-P] | 0.75 ratio to the reference peptide | 
6 | Ac-WQPCPWESWT[Phe(4-F)]CWDPGGGK-NH2 (disulfide 4-12) [Seq019-P] |  | 0.601
7 | Ac-S(αGalNAc)WQPCPWESWTFCWDPGGGK-NH2 (disulfide 5-13) [Seq027-P] |  | 0.559
8 | Ac-WQPC[Hyp]WESWTFCWDPGGGK-NH2 (disulfide 4-12, also called Ac-WQPC*-Hypt4-WESWTFC*WDPGGGK-NH2) [Seq032-P] | 0.55 ratio to the reference peptide | 
9 | Thf2ca-WQPCPWESWTFCWDPGGGK-NH2 (disulfide 4-12) [Seq028-P] |  | 0.616

The next lines start with the values.

Row | Rel IC50 (DDE [1]) | Rel IC50 (ratio to the reference peptide) (DDE [2]) | Binder
10 | 1.15 ratio to the reference peptide |  | Ac-S(αGalNAc)[AEEA]WQPCPWESWTFCWDPGGGK-NH2 (disulfide 6-14; SMILES CC(=O)N[C@H]1[C@@H](OC[C@H](NC(C)=O)C(=O)NCCOCCOCC(=O)N[C@@H](Cc2c[nH]c3ccccc23)C(=O)N[C@@H](CCC(N)=O)C(=O)N2CCC[C@H]2C(=O)N[C@H]2CSSC[C@@H](C(=O)N[C@@H](Cc3c[nH]c4ccccc34)C(=O)N[C@@H](CC(=O)O)C(=O)N3CCC[C@H]3C(=O)NCC(=O)NCC(=O)NCC(=O)N[C@@H](CCCCN)C(N)=O)NC(=O)[C@H](Cc3ccccc3)NC(=O)[C@H]([C@@H](C)O)NC(=O)[C@H](Cc3c[nH]c4ccccc34)NC(=O)[C@H](CO)NC(=O)[C@H](CCC(=O)O)NC(=O)[C@H](Cc3c[nH]c4ccccc34)NC(=O)[C@@H]3CCCN3C2=O)O[C@H](CO)[C@H](O)[C@@H]1O) [Seq031-P]
11 | 0.875 ratio to the reference peptide |  | Ac-WQPCPAESWTFCWDPGGGK-NH2 (disulfide 4-12; SMILES CC(=O)N[C@@H](Cc1c[nH]c2ccccc12)C(=O)N[C@@H](CCC(N)=O)C(=O)N1CCC[C@H]1C(=O)N[C@H]1CSSC[C@@H](C(=O)N[C@@H](Cc2c[nH]c3ccccc23)C(=O)N[C@@H](CC(=O)O)C(=O)N2CCC[C@H]2C(=O)NCC(=O)NCC(=O)NCC(=O)N[C@@H](CCCCN)C(N)=O)NC(=O)[C@H](Cc2ccccc2)NC(=O)[C@H]([C@@H](C)O)NC(=O)[C@H](Cc2c[nH]c3ccccc23)NC(=O)[C@H](CO)NC(=O)[C@H](CCC(=O)O)NC(=O)[C@H](C)NC(=O)[C@@H]2CCCN2C1=O) [Seq005-P]
12 | 0.235 ratio to the reference peptide |  | Ac-GPPGWQPCPWESWTFCWDPGGGK-NH2 (disulfide 8-16) [Seq014-P]
13 | 0.714 ratio to the reference peptide |  | Ac-SGSG[AEEA]WQPCPWESWTFCWDPGGGK-NH2 (disulfide 9-17) [Seq017-P]
14 |  | 0.622 | H-GWQPCPWESWTFCWDPGGGK-NH2 (disulfide 5-13) [Seq021-P]
